Assay results published in US9994886B2, “Modified Epstein-Barr virus DNA polymerase and methods for isothermal DNA amplification” (priority 2013, dated 2018).

Tests used:
[1] = tested on: activated calf thymus (CT) DNA; assay: DNA polymerase elongation activity of purified BALF5 on activated calf thymus DNA; type: biochemical; conditions: BMRF1 at concentrations required for stimulation at high-salt
Method: When assayed in the presence of BMRF1, its activity on CT DNA at 100 mM ammonium sulfate was greater than 100-fold increased over its activity alone, in the absence of salt.

[2] = monomeric form of BMRF1; cited from earlier work
[3] = DNA polymerase activity in vitro of BALF5 deletion polypeptides; type: biochemical; conditions: with or without BMRF1, high and low ionic strength
GST-BMRF1(1-303) = biological target: T1, GST-BMRF1(1-303) (Epstein-Barr virus, UniProt P03191); assay: Binding of radiolabeled BALF5-deletion polypeptides to GST-BMRF1(1-303); conditions: 100 mM ammonium sulfate; [35S]-methionine labeled in vitro translated polypeptides
T1 construct: A GST fusion with BMRF1 residues 1-303 was constructed and expressed in E. coli BL21*DE3; made in house; host or cells: E. coli BL21*DE3
T1 sequence (P03191 1-303): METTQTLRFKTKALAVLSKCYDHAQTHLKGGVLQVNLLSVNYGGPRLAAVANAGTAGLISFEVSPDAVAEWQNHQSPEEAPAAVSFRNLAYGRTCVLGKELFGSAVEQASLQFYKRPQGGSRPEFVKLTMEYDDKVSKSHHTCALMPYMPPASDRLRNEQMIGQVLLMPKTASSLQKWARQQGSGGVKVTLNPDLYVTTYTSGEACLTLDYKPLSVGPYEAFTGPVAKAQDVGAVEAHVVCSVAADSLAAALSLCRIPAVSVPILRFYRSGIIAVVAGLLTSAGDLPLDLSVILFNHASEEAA
Method: To determine if the extreme carboxyl terminus of the EBV BALF5 subunit is necessary for functional interaction with BMRF1, a series of deletions of the BALF5 open reading frame was constructed in the pYES-X2 vector and [^35S]-methionine labeled polypeptides were expressed by in vitro transcription-translation as described (Kiehl, A. and D. I. Dorsky, J Virol, 1995, 69(3): p. 1669-77). These radiolabeled BALF5-deletion polypeptides were then assayed for binding to GST-BMRF1(1-303) in 100 mM ammonium sulfate. In vitro translated BALF5 bound to GST-BMRF1(1-303) but not to GST alone.

| Molecule | effect on the low-salt activity of BALF5 [1] | EBVpol processivity [2] | DNA polymerase activity in vitro [3] | binding to GST-BMRF1(1-303) (GST-BMRF1(1-303)) |
| --- | --- | --- | --- | --- |
| WT (1-404): full-length 50-kDa BMRF1 processivity factor subunit of EBV DNA polymerase, SEQ ID NO. 9 (protein, Epstein-Barr Virus) METTQTLRFKTKALAVLSKCYDHAQTHLKGGVLQVNLLSVNYGGPRLAAVANAGTAGLISFEVSPDAVAEWQNHQSPEEAPAAVSFRNLAYGRTCVLGKELFGSAVEQASLQFYKRPQGGSRPEFVKLTMEYDDKVSKSHHTCALMPYMPPASDRLRNEQMIGQVLLMPKTASSLQKWARQQGSGGVKVTLNPDLYVTTYTSGEACLTLDYKPLSVGPYEAFTGPVAKAQDVGAVEAHVVCSVAADSLAAALSLCRIPAVSVPILRFYRSGIIAVVAGLLTSAGDLPLDLSVILFNHASEEAAASTASEPEDKSPRVQPLGTGLQQRPRHTVSPSPSPPPPPRTPTWESPARPETPSPAIPSHSSNTALERPLAVQLARKRTSSEARQKQKHPKKVKQAFNPLI | did not appear to significantly decrease |  |  |  |
| C95E: BMRF1 comprising a C95E mutation, a monomeric form of BMRF1 (protein, UniProt P03191 1-404, looked up, variant C95E) DNA polymerase processivity …: METTQTLRFKTKALAVLSKCYDHAQTHLKGGVLQVNLLSVNYGGPRLAAVANAGTAGLISFEVSPDAVAEWQNHQSPEEAPAAVSFRNLAYGRTEVLGKELFGSAVEQASLQFYKRPQGGSRPEFVKLTMEYDDKVSKSHHTCALMPYMPPASDRLRNEQMIGQVLLMPKTASSLQKWARQQGSGGVKVTLNPDLYVTTYTSGEACLTLDYKPLSVGPYEAFTGPVAKAQDVGAVEAHVVCSVAADSLAAALSLCRIPAVSVPILRFYRSGIIAVVAGLLTSAGDLPLDLSVILFNHASEEAAASTASEPEDKSPRVQPLGTGLQQRPRHTVSPSPSPPPPPRTPTWESPARPETPSPAIPSHSSNTALERPLAVQLARKRTSSEARQKQKHPKKVKQAFNPLI |  | can still efficiently catalyze EBVpol processivity |  |  |
| C550: BALF5 with deletion of the carboxyl terminal 465 residues (protein) MASASLTMSGGLFYNPFLRPNKGLLKKPDKEYLRLIPKCFQTPGAAGVVDVRGPQPPLCFYQDSLTVVGGDEDGKGMWWRQRAQEGTARPEADTHGSPLDFHVYDILETVYTHEKCAVIPSDKQGYVVPCGIVIKLLGRRKADGASVCVNVFGQQAYFYASAPQGLDVEFAVLSALKASTFDRRTPCRVSVEKVTRRSIMGYGNHAGDYHKITLSHPNSVCHVATWLQDKHGCRIFEANVDATRRFVLDNDFVTFGWYSCRRAIPRLQHRDSYAELEYDCEVGDLSVRREDSSWPSYQALAFDIECLGEEGFPTATNEADLILQISCVLWSTGEEAGRYRRILLTLGTCEDIEGVEVYEFPSELDMLYAFFQLIRDLSVEIVTGYNVANFDWPYILDRARHIYSINPASLGKIRAGGVCEVRRPHDAGKGFLRANTKVRITGLIPIDMYAVCRDKLSLSDYKLDTVARHLLGAKKEDVHYKEIPRLFAAGPEGRRRLGMYCVQDSALVMDLLNHFVIHVEVAEIAKIAHIPCRRVLDDGQQIRVFSCLLAAAQKENF |  |  | catalytically inactive | did not bind |
| ΔC903: BALF5 with deletion of the carboxyl-terminal 112 residues (protein) MASASLTMSGGLFYNPFLRPNKGLLKKPDKEYLRLIPKCFQTPGAAGVVDVRGPQPPLCFYQDSLTVVGGDEDGKGMWWRQRAQEGTARPEADTHGSPLDFHVYDILETVYTHEKCAVIPSDKQGYVVPCGIVIKLLGRRKADGASVCVNVFGQQAYFYASAPQGLDVEFAVLSALKASTFDRRTPCRVSVEKVTRRSIMGYGNHAGDYHKITLSHPNSVCHVATWLQDKHGCRIFEANVDATRRFVLDNDFVTFGWYSCRRAIPRLQHRDSYAELEYDCEVGDLSVRREDSSWPSYQALAFDIECLGEEGFPTATNEADLILQISCVLWSTGEEAGRYRRILLTLGTCEDIEGVEVYEFPSELDMLYAFFQLIRDLSVEIVTGYNVANFDWPYILDRARHIYSINPASLGKIRAGGVCEVRRPHDAGKGFLRANTKVRITGLIPIDMYAVCRDKLSLSDYKLDTVARHLLGAKKEDVHYKEIPRLFAAGPEGRRRLGMYCVQDSALVMDLLNHFVIHVEVAEIAKIAHIPCRRVLDDGQQIRVFSCLLAAAQKENFILPMPSASDRDGYQGATVIQPLSGFYNSPVLVVDFASLYPSIIQAHNLCYSTMITPGEEHRLAGLRPGEDYESFRLTGGVYHFVKKHVHESFLASLLTSWLAKRKAIKKLLAACEDPRQRTILDKQQLAIKCTCNAVYGFTGVANGLFPCLSIAETVTLQGRTMLERAKAFVEALSPANLQALAPSPDAWAPLNPEGQLRVIYGDTDSLFIECRGFSESETLRFADALAAHTTRSLFVAPISLEAEKTFSCLMLITKKRYVGVLTDGKTLMKGVELVRKTACKFVQTRCRRVLDLVLADARVKEAASLLSHRPFQESFTQGLPVGFLPVIDILNQAYTDLREGRVPMGELCFS |  |  | wild-type DNA polymerase activity | binding was preserved |
| A107-550: BALF5 with internal deletion of residues 107-550 (protein) MASASLTMSGGLFYNPFLRPNKGLLKKPDKEYLRLIPKCFQTPGAAGVVDVRGPQPPLCFYQDSLTVVGGDEDGKGMWWRQRAQEGTARPEADTHGSPLDFHVYDILETVYTHILPMPSASDRDGYQGATVIQPLSGFYNSPVLVVDFASLYPSIIQAHNLCYSTMITPGEEHRLAGLRPGEDYESFRLTGGVYHFVKKHVHESFLASLLTSWLAKRKAIKKLLAACEDPRQRTILDKQQLAIKCTCNAVYGFTGVANGLFPCLSIAETVTLQGRTMLERAKAFVEALSPANLQALAPSPDAWAPLNPEGQLRVIYGDTDSLFIECRGFSESETLRFADALAAHTTRSLFVAPISLEAEKTFSCLMLITKKRYVGVLTDGKTLMKGVELVRKTACKFVQTRCRRVLDLVLADARVKEAASLLSHRPFQESFTQGLPVGFLPVIDILNQAYTDLREGRVPMGELCFSTELSRKLSAYKSTQMPHLAVYQKFVERNEELPQIHDRIQYVFVEPKGGVKGARKTEMAEDPAYAERHGVPVAVDHYFDKLLQGAANILQCLFDNNSGAALSVLQNFTARPPF |  |  | catalytically inactive | did not prevent binding |
| N160: BALF5 with deletion of the amino-terminal 160 residues (protein) VEFAVLSALKASTFDRRTPCRVSVEKVTRRSIMGYGNHAGDYHKITLSHPNSVCHVATWLQDKHGCRIFEANVDATRRFVLDNDFVTFGWYSCRRAIPRLQHRDSYAELEYDCEVGDLSVRREDSSWPSYQALAFDIECLGEEGFPTATNEADLILQISCVLWSTGEEAGRYRRILLTLGTCEDIEGVEVYEFPSELDMLYAFFQLIRDLSVEIVTGYNVANFDWPYILDRARHIYSINPASLGKIRAGGVCEVRRPHDAGKGFLRANTKVRITGLIPIDMYAVCRDKLSLSDYKLDTVARHLLGAKKEDVHYKEIPRLFAAGPEGRRRLGMYCVQDSALVMDLLNHFVIHVEVAEIAKIAHIPCRRVLDDGQQIRVFSCLLAAAQKENFILPMPSASDRDGYQGATVIQPLSGFYNSPVLVVDFASLYPSIIQAHNLCYSTMITPGEEHRLAGLRPGEDYESFRLTGGVYHFVKKHVHESFLASLLTSWLAKRKAIKKLLAACEDPRQRTILDKQQLAIKCTCNAVYGFTGVANGLFPCLSIAETVTLQGRTMLERAKAFVEALSPANLQALAPSPDAWAPLNPEGQLRVIYGDTDSLFIECRGFSESETLRFADALAAHTTRSLFVAPISLEAEKTFSCLMLITKKRYVGVLTDGKTLMKGVELVRKTACKFVQTRCRRVLDLVLADARVKEAASLLSHRPFQESFTQGLPVGFLPVIDILNQAYTDLREGRVPMGELCFSTELSRKLSAYKSTQMPHLAVYQKFVERNEELPQIHDRIQYVFVEPKGGVKGARKTEMAEDPAYAERHGVPVAVDHYFDKLLQGAANILQCLFDNNSGAALSVLQNFTARPPF |  |  | catalytically inactive | did not prevent binding |
